Source: the nanobody polyreactivity screen of Harvey et al. (2022)

Assay: yeast display, Sf9 membrane polyspecificity reagent, FACS + sequencing; frameworks hold sequencing errors
Method in brief: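 A synthetic nanobody library was expressed on Saccharomyces cerevisiae BJ5465 by galactose induction for 36–48 hours. The library was stained for 1 hour at 4 °C with 10% biotinylated, detergent-solubilized Sf9 membrane reagent and enriched with streptavidin microbeads before FACS. Low and high (top ~1%) gates were set on anti-HA fluorescence for expression and streptavidin fluorescence for reagent binding, and each polyreactivity label reflects the gate of origin.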

QVQLVESGGGLVQAGGSLRFSCAASGFTFYVYAMGWYRHAPGKERELVAAISKSGGSTYYSDSVKGRFTISRDNAKNTVYLQMNSLKPEDTAVYYCAVYDKRSGYRGGHRYNSWGQGTQVTVSS
polyreactivity (PSR sort gate): high polyreactivity

QVQLVESGGGLVQAGGSLRLSCAASGGILVGYAMGRYRQAPGKERELVAANNYSGGSTNYADSVKGRFTISRDNAKYSVYLQMNSLKPEDTAVYFCAARSTARYGYWGQGTQVTVSS
polyreactivity (PSR sort gate): low polyreactivity

QVHLVESGGGLVQAGGSLRLSCAASGFTFRYYTMGWYRQAPGKERELVARITWSGGITYYADSVKGRFTISRDNAKNTVYLQMNSLKPEDTAVYYCNAERRWAAYDYWGQGTQVTVSS
polyreactivity (PSR sort gate): high polyreactivity

QVQLVESGGGLVQAGGSLRLSCAASGITFGYYAMGWYRQAPGKERELVAAIRSSGGSTYYADSVKGRFTISRDNAKNTVYLQMNSLKPEDTAVYYCNARYRKSSRPGYEPYERYYWGQGTQVTVSS
polyreactivity (PSR sort gate): high polyreactivity

QVQLVESGGGLDQAGGSLRLSCAASGSISVWYVMGWYRQAPGKERELVAAITRSGGSTFYADSLKGRFTISRDNAKNTVYLQMNSLKPEDTAVYYCASDGGVAWGYGDWGQGTQVTVSS
polyreactivity (PSR sort gate): low polyreactivity

QVQLVESGGGLVQAGGSLRLSCAASGRTFVYNAMVWYRQAPGKEREFVAAISWRGGSTFYADSVKGRFTISRDNAKNTVYLQMNSLKPEDTAVYYCAAEGWYYRYDYWGQGTQVTVSS
polyreactivity (PSR sort gate): high polyreactivity

QVQLVESGGGLVQAGCSLRLSCAASGRIFDYYAMGWNRQAPGKERELVAAISYSGGSTHYADSVKGRFTISRDNAKNSVYLQMISLKPEDTAVYYCAGWAWSGVEYDYWGQGSQVTVSS
polyreactivity (PSR sort gate): low polyreactivity

QVQLVESGGGLVQAGGSLRLSCAASGRTFYIYAMGWYRQAPGKERELVADITSGGSTYYADSVKGRFTISRDNAKNTVYLQMNSLKPEDTAVYYCAADWVTFYSYTEYDYWGQGTQVTVSS
polyreactivity (PSR sort gate): low polyreactivity

QVQLVESGGGLVQAGGSLRLSCSASGITFPDYAMGWYRQAPVKERELVATISSSGGNTYYADSVKGRFTISRDNAKNTVYLQMNSLKPEDTAVYYCATVSYYWGYDYWGQGTQVTVSS
polyreactivity (PSR sort gate): low polyreactivity

QDQLVQSGGGLVQAGGSLRKSCAASGSTFNPNTMGWNKQAPGKERELVASITWRGGRTYYADSVKGRFTISRDNAKNTVSLQMNSLKPEDTAVFYCASVTFSYDGYDYWGQGTQVTVTS
polyreactivity (PSR sort gate): low polyreactivity

QVQLVESGGGLVQAGGSLRLSCAASGSIFSTYAMGWYRQAPVKERELVAAINSGDSTSYADSVKGRFTISRDNAKNTVYLQMNSLKPEDTAVYYCAAKTGGYWYLRRTARYESWGQGTQVTVSS
polyreactivity (PSR sort gate): low polyreactivity

QVQLVESGAGLGQAGGSLRLSCAASGSNDIYAMGWNRQEPGKEREFVAAISYSSGSTYYADSVKGRFTISRDNAKNTVFLQMNSLIPVDTAVYYCAAVWQAGVYRYYYWGQGTQVTVSS
polyreactivity (PSR sort gate): high polyreactivity

QVQLVESGGGLVQAGGSLRLSCAASGSIFEGNAMGWYRQAPGKERELVAAISTTGGITYYADSVKGRFTISRDKAKNTVYLQMNSLKPEDTAVYYCAADPSQPRIDSSNYDYWGQGTQVTVSS
polyreactivity (PSR sort gate): low polyreactivity

QVQLVESGGGLVQAGGSLRLSCAASGRIFGRYAMGWYRQAPGKEREFVAAISKRGGGTYYADSVKGRFTISRDNAKNTVYLQMISLKPEDTAVYYCAVDNSPGFDDYDYWGQGTQVTVSS
polyreactivity (PSR sort gate): high polyreactivity

QVQLVESGGGLVQAGGSLRLSCAASGFIFRQYAMGWYRQAPGKERELVAAISVGGGRTYYADSVKGRFTISRDNAKNTVYLQMNSLKPEVTAVYYCAASNWHSRGSGEYYWGQGTQVTVSS
polyreactivity (PSR sort gate): high polyreactivity

HVLLVESGGGLVQAGGSLRLSFAATAFTFTYYTMGSYRQAPGKETELVAAITSSGGSTYYADSVMGRFTISRDNANNTVYLQMNSLKPEDTAVYYCAASRYSTRFGARVYWGQVTQVTVSS
polyreactivity (PSR sort gate): high polyreactivity

QVQLVESGGGLVQAGGSLRLSCAASGFIIGSYTMGWYRQAHGKERELVASITKRGGSTYYADSVKGRFTISRDNAKNTVYLQMNSLKPEDTSVYYCAATYWFSHRSRYDYWGQGTQVTVSS
polyreactivity (PSR sort gate): high polyreactivity

QVQLVESGGGLVQAGGSLRLSCAASGSIFNYYAMGWYRQAPGKESELVAGITTSGGSTYYADSVKGRFTISRDNAKNTVYLQMNSLKPEDTAVYYCAAYDYISSTYFLYDYWGQGTQVTVSS
polyreactivity (PSR sort gate): low polyreactivity

QVQLVESGGGLVQAGGSLRLSCAASGSIFYGYAMGWYRQAPGKERELVAGISNGGSTNYADSVKGRFTISRDNAKNTVYLQMNSLKPEDTAVYYCNRDGTYVYHGGEYCGQGTQVTVSS
polyreactivity (PSR sort gate): low polyreactivity

QVQLVESGGGLVQAGGSLRLSCAASGFILRYYAMGWYRQAPGKERELVAAITRGGSTYDADSVKGRFTISRDNAKNTVYLQMNSLKPEDTAVYYFDRRVGYKFSYDYWGQGTQVTVSS
polyreactivity (PSR sort gate): high polyreactivity

QVQLVESGGGLVQAAGSLRLSCAASGLTFFGYAMGWYRQAPGKERELVAAISSSGTRTYYADSVKGRFTISRDHAKNTVYLQMNSLKPEDTAFYYCASGRYQEYDYWGQGTQVTVSS
polyreactivity (PSR sort gate): high polyreactivity

QVQHVESCGGLDQAGGSLRLSCAASGRTFKYYTMGWYRQAPGKQREFVAAISTGGSTHYADSVKGRFTISRDNAKNTVYLQMNSLKPEVTAVSYCAAGCVLWVRDPQGRASYYWGQGTHVTVSS
polyreactivity (PSR sort gate): high polyreactivity

QVQLVESGGGLVQAGGSLRLSCAASGSIFASNAMGWYRQAPGKQWELVAAINSGTRTKYADSVKGRFTISRDNAKNTVYLQMNSRKPEDTAVYYCAARFKGERGPAHYYWGQGTQVTVSS
polyreactivity (PSR sort gate): high polyreactivity

QVQLVESGGGLVQAGGSLRLSCAASGITFYYYAMGWYRQAPGKERELVAAISFRGGSTYYADSVKGRFTISRDNAKNTVYLQMNSLKPEDTAVYYCAKAWSYTDPPRGDYWGQGTQVTVSS
polyreactivity (PSR sort gate): high polyreactivity

QVQLVESGGGLVQAGGSLRLSCAASGRISSSYAMGWYRQAPGKEREFVAGITSIGGRTYYADSVKGRFTISRDNAKNTVYLQMNSLKPEDTAVYYCATTSSWRYGYWGQGTQVTVSS
polyreactivity (PSR sort gate): high polyreactivity

QVQLVESGGGLVQAGGSLRLSCAASGFTFASYAMGWYRQAPGKERELVAAISGSGTSTYYADSVKGRFTISRDKAKNTVYLQMNSLKPEHTAVYYCAARRYGYRYDYWGQGTQVTVSS
polyreactivity (PSR sort gate): high polyreactivity

QVQLVESGGGLVQAGGSLRLSCAASGRIIARYAMGWSRQAPGKERELVAAISRGGGRTYYADSVKGRFTISRDNATNTVYLQMNSLKPEDTAVYYCAADAYSIASVGYDYWGQGTQVTVSS
polyreactivity (PSR sort gate): high polyreactivity

QVQLVESGGGLVQAGGSLRLSCAASGSIFRYNAMGWYRQAPGKERELVAAIDWSGGTYYADSVKGRFTISRDNAKNTVYLQMNSLKPEDTAVYYCNARGSKYSSYWGYDYWGQGTQVTVSS
polyreactivity (PSR sort gate): low polyreactivity

QVQLVESGGGLVQAGGSLRLSCAASGSIFNQYAMGWYRQAPGKERELVARIRGSTGTTYYADSVKGRFTISRDNAKNTVYLQMNSLKPEDTAVYYCNAARYQGRSRFDYWGQGTQVTVSS
polyreactivity (PSR sort gate): high polyreactivity

QVQLVESGGGLVQAGGSLRLSCAASGNTLYTNAMGWYRQAPGKERELVAVISRGGSTYYADSVKGRFTISRDNAKNTVYLQMNSLKPEDTAVYYCATYGSSWSRAYGYWGQGTQVTVSS
polyreactivity (PSR sort gate): high polyreactivity

QVQLVESGGRLVQAGGSLRLSCAASGFIFSRYAMGWSRQAPGKERELVAAISRGGSTNYADSVMGRFTISRDNAKNTVYLQMNSLKPEDTAVYYCAVRQIVRYYYWGQGTQVTVSS
polyreactivity (PSR sort gate): high polyreactivity

QVQLVESGGGLVQAGGSLRLSCAASGSTFRLYAMGWYRQAPGKERELVAAISSRGGTTYYADSVKGRFTISRDNAKNTVYLQMNSLKPEDTAVYYCAAPRASQYGDDYWGHGTQVTVSS
polyreactivity (PSR sort gate): high polyreactivity
